From patent publication US20190367589A1 (CYTOMX THERAPEUTICS, published 2019) come the findings set out here.

The target of experiment [1] is T1, human Jagged 1-Fc (extracellular domain of human Jagged 1 fused to the Fc portion of human IgG1); R&D Systems … (human, UniProt P78504 34-1067).
T1 construct: extracellular domain; Bought reagent; also called hJag1; h Jagged 1; not shown: Fc portion of human IgG1
Nature of the experiment: ELISA, ligand-Fc coated, anti-human IgG Fab-specific HRP. The method, then: (§1) Bound antibody was visualized with an anti-human IgG-HRP conjugate, Fab specific, (Sigma, St Louis, Mo.; Cat # A0293-1ML) and developed with the chromogenic substrate TMB.

The target of experiment [2] is T2, human Jagged 2-Fc (R&D Systems Cat #1726-JG-050) (human, UniProt Q9Y219 27-1080, limits assumed).
T2 construct: Bought reagent; also called hJag2; h Jagged 2; not shown: Fc part
T2 sequence (Q9Y219 27-1080 limits assumed): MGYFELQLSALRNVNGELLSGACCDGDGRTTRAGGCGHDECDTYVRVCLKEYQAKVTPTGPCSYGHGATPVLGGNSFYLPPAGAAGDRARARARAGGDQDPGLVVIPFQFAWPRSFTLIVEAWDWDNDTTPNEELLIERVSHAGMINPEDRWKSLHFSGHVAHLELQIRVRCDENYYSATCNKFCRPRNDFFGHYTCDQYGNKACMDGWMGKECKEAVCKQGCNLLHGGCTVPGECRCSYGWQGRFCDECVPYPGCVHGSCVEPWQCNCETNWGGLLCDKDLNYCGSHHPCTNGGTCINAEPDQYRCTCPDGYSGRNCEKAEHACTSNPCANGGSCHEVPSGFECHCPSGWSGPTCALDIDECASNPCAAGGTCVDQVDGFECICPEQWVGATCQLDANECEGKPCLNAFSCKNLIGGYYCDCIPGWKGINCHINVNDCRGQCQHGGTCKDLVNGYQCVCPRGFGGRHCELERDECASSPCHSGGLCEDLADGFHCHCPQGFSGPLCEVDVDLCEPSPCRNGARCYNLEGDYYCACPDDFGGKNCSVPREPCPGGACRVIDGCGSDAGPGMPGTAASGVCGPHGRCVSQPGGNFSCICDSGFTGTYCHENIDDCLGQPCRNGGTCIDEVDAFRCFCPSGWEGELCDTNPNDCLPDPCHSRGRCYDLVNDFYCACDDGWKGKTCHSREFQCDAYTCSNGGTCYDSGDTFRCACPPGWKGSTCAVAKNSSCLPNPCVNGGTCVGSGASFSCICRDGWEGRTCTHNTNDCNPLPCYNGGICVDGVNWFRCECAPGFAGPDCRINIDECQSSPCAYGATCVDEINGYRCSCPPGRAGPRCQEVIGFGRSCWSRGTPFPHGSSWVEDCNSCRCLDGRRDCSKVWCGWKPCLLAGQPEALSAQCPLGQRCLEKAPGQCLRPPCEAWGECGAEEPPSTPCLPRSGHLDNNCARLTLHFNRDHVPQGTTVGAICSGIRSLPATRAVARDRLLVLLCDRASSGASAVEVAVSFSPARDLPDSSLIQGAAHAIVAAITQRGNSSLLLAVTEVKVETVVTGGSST
The description is as above. The method, then:
as §1

For experiment [3], the target named is T1, human Jagged 1-Fc (extracellular domain …). Nature of the experiment: BLI (Octet), Jagged-Fc on anti-human Fc tips, Fab in solution. Here is the method:
(§2) Off rates for individual Fabs were measured using an Octet (ForteBio, Menlo Park, Calif.). […] Following a wash, the loaded tips were exposed to 25 μM Fab until binding had reached equilibrium. The tips were then removed to a fresh solution with no Fab, and the rate of Fab dissociation was measured.

Experiment [4] addresses T2, human Jagged 2-Fc (R&D Systems Cat …). Described as above. The method, then: as §2
The target of experiment [5] is T3, murine Jagged 2-Fc (R&D Systems) (murine, UniProt Q9QYE5 24-1082, limits assumed).
T3 construct: Bought reagent, cited as ibid. although no catalogue number is printed anywhere; also called m Jagged 2; not shown: Fc part
T3 sequence (Q9QYE5 24-1082 limits assumed): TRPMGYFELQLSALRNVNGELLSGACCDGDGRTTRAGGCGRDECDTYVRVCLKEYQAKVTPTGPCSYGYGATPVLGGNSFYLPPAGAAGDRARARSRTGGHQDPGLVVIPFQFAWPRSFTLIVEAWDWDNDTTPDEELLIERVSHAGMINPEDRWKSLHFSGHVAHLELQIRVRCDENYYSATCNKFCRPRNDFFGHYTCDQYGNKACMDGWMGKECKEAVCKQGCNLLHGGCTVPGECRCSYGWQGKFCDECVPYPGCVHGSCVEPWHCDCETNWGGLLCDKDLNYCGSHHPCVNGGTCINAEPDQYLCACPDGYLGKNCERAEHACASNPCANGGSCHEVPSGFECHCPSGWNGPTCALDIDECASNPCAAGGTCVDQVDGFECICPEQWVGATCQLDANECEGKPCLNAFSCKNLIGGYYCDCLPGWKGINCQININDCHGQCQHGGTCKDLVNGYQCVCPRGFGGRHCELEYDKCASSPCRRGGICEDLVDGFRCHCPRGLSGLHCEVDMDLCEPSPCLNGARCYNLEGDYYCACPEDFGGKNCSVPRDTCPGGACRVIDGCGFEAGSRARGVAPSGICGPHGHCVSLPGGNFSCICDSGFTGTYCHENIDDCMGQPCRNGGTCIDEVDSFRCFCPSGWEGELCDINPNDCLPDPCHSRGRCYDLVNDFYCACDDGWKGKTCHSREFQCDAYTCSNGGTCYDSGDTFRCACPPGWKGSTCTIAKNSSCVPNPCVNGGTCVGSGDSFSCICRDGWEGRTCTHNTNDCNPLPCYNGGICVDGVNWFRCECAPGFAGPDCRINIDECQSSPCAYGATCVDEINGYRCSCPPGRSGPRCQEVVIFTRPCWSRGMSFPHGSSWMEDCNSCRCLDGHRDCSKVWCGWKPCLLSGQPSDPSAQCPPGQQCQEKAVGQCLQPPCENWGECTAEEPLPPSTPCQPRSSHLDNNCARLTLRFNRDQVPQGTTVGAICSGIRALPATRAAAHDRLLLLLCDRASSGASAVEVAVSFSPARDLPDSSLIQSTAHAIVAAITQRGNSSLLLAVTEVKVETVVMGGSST
Described as above. Here is the method:
as §2

The target of experiment [6] is T2, human Jagged 2-Fc (R&D Systems Cat …). The experiment is described as follows: drawn table 'Kd (nM)' of Fab; method not stated; the legend names the matured antibody as 4D11.
The next experiment concerns the target T4, masking moiety JS5872.
T4 peptide: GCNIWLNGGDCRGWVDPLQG
The experiment is described as follows: FACS of cells displaying the masking peptide, labelled Fab 4D11, signal normalised to expression; Fab concentration not given.

In a further experiment the target is T5, masking moiety JS5877.
T5 peptide: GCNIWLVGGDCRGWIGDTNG
The description is as above.

Another experiment concerns the target T6, masking moiety JS5885.
T6 peptide: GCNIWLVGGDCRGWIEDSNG
The description is as above.

The next experiment concerns the target T7, masking moiety JS5887.
T7 peptide: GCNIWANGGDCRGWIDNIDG
Described as above.

The target in another experiment is T8, JS5340.
T8 construct: also called masking moiety JS5340
T8 peptide displayed on cells: CNLWLHGGDCRGWQG
Nature of the experiment: FACS of cells displaying the peptide, biotinylated anti-Jagged Fab at 1, 10 and 100 nM, streptavidin-PE, normalised to expression with yPet-MONA.

For the next experiment, the target named is T9, JS5347.
T9 construct: also called masking moiety JS5347
T9 peptide displayed on cells: CNIWGPSVDCGALLG
The description is as above.

Another experiment concerns the target T10, JS5358.
T10 construct: also called masking moiety JS5358
T10 peptide displayed on cells: CNIWVNGGDCRSFEG
The experiment is described as above.

The target in a further experiment is T11, masking moiety JS5342.
T11 peptide: CNIWLVGGDCRGWQG
The experiment is described as above.

The target of experiment [7] is T1, human Jagged 1-Fc (extracellular domain …). The experiment is described as follows: phage ELISA, ligand coated. An excerpt:
(§3) Jagged ligands were adsorbed to the wells of a 96-well ELISA plate, each ligand on a separate plate. Phage were applied to correlative wells on each plate and allowed to bind. Bound phage were visualized with an anti-M13-HRP conjugate and developed with the chromogenic substrate TMB. Also shown are the SEQ ID NOs for the each of these isolates.
Background: In an ELISA, binding on a coated surface is turned into a signal by an enzyme label.

Experiment [8] addresses T2, human Jagged 2-Fc (R&D Systems Cat …). Nature of the experiment: phage ELISA, ligand coated.
From the text: as §3

Experiment [9] has as its target T12, rat Jagged 1-Fc (R&D Systems Cat #599-JG-100) (rat, UniProt Q63722 34-1067, limits assumed).
T12 construct: Bought reagent; also called rJag1; rJAG1; not shown: Fc part
Nature of the experiment: phage ELISA, ligand coated.
From the text: as §3

The koff is the rate constant with which the complex falls apart. A low value points to a long-lived complex. The Kd is the concentration at which binding is half-saturated. Read a low Kd as higher affinity.

B1: anti-Jagged 13 IgG (antibody, V domains shown)
VH: EVQLLESGGGLVQPGGSLRLSCAASGFTFSSYAMSWVRQAPGKGLEWVSSIETQGPTTLYADSVKGRFTISRDNSKNTLYLQMNSLRAEDTAVYYCAKTSSAFDYWGQGTLVTVSS
VL: DIQMTQSPSSLSASVGDRVTITCRASQSISSYLNWYQQKPGKAPKLLIYASSLQSGVPSRFSGSGSGTDFTLTIGSLQPEDFATYYCQQNVATPLTFGQGTKVEIKR
notes: Fully human IgG made from the variable domains of ScFv Jagged 13; also called anti-Jag 13
As for B1, the “affinity (ELISA)” value in [1] and in [2] was > 30 nM throughout.

B2: anti-Jagged 32 IgG (antibody, V domains shown)
VH: EVQLLESGGGLVQPGGSLRLSCAASGFTFSSYAMSWVRQAPGKGLEWVSSIEQMGWQTYYADSVKGRFTISRDNSKNTLYLQMNSLRAEDTAVYYCAKSAAAFDYWGQGTLVTVSS
VL: DIQMTQSPSSLSASVGDRVTITCRASQSISSYLNWYQQKPGKAPKLLIYAASLQSGVPSRFSGSGSGTDFTLTISSLQPEDFATYYCQQTVVAPLTFGQGTKVEIKR
notes: Fully human IgG made from the variable domains of ScFv Jagged 32; also called anti-Jag 32; antibody 32/32
For the molecule B2, in experiment [1], the “affinity (ELISA)” value was > 30 nM.

B3: anti-Jagged 13 Fab (Fab, V domains shown)
VH: EVQLLESGGGLVQPGGSLRLSCAASGFTFSSYAMSWVRQAPGKGLEWVSSIETQGPTTLYADSVKGRFTISRDNSKNTLYLQMNSLRAEDTAVYYCAKTSSAFDYWGQGTLVTVSS
VL: DIQMTQSPSSLSASVGDRVTITCRASQSISSYLNWYQQKPGKAPKLLIYASSLQSGVPSRFSGSGSGTDFTLTIGSLQPEDFATYYCQQNVATPLTFGQGTKVEIKR
notes: Fab expressed in E. coli; also called Jag13
B3: the koff in experiment [3] was determined as 0.022 s⁻¹; in [4], 0.001 s⁻¹; in [5], 0.0028 s⁻¹.

B4: 4D11 Fab (Fab, V domains shown)
VH: EVQLLESGGGLVQPGGSLRLSCAASGFTFSSYAMSWVRQAPGKGLEWVSSIDPEGRQTYYADSVKGRFTISRDNSKNTLYLQMNSLRAEDTAVYYCAKDIGGRSAFDYWGQGTLVTVSS
VL: DIQMTQSPSSLSASVGDRVTITCRASQSISSYLNWYQQKPGKAPKLLIYAASSLQSGVPSRFSGSGSGTDFTLTISSLQPEDFATYYCQQTVVAPPLFGQGTKVEIKR
notes: C-terminally His-tagged Fab from the periplasm of E. coli; also called anti-Jagged Fab 4D11; Fab 4D11
As for B4, the koff in experiment [4] was found to be 0.00045 s⁻¹; in experiment [5], 0.00042 s⁻¹. Besides, the Kd in [6] was < 1 nM. Besides, the binding result with masking moiety JS5872, with masking moiety JS5877, in the experiment with masking moiety JS5885, with masking moiety JS5887, with JS5340 and with JS5347 was “binds” each time. The binding result with JS5358 and with masking moiety JS5342 was “binds” each time.

B5: 4B2 Fab (Fab, V domains shown)
VH: EVQLLESGGGLVQPGGSLRLSCAASGFTFSSYAMSWVRQAPGKGLEWVSSIEQMGWQTYYADSVKGRFTISRDNSKNTLYLQMNSLRAEDTAVYYCAKDIGGRSAFDYWGQGTLVTVSS
VL: DIQMTQSPSSLSASVGDRVTITCRASQSISSYLNWYQQKPGKAPKLLIYAASSLQSGVPSRFSGSGSGTDFTLTISSLQPEDFATYYCQQTLDAPPQFGQGTKVEIKR
notes: C-terminally His-tagged Fab from the periplasm of E. coli
B5: the koff is 0.0005 s⁻¹ in experiment [3], 0.0065 s⁻¹ in experiment [4] and 0.0011 s⁻¹ in experiment [5].

B6: 346.24 (Fab, V domains shown)
VH: EVQLLESGGGLVQPGGSLRLSCAASGFTFSSYAMSWVRQAPGKGLEWVSSIEEMGWQTLYADSVKGRFTISRDNSKNTLYLQMNSLRAEDTAVYYCAKSAAAFDYWGQGTLVTVSS
VL: DIQMTQSPSSLSASVGDRVTITCRASQSISSYLNWYQQKPGKAPKLLIYAASSLQSGVPSRFSGSGSGTDFTLTISSLQPEDFATYYCQQSVVAPLTFGQGTKVEIKR
notes: also called Lc24/Hc24
B6: the binding result in experiment [7] and in [8] was “binds” each time.

B7: 4E11 Fab (Fab, V domains shown)
VH: EVQLLESGGGLVQPGGSLRLSCAASGFTFSSYAMSWVRQAPGKGLEWVSSIEPMGQLTEYADSVKGRFTISRDNSKNTLYLQMNSLRAEDTAVYYCAKDIGGRSAFDYWGQGTLVTVSS
VL: DIQMTQSPSSLSASVGDRVTITCRASQSISSYLNWYQQKPGKAPKLLIYAASSLQSGVPSRFSGSGSGTDFTLTISSLQPEDFATYYCQQALDAPLMFGQGTKVEIKR
notes: as for B5
With B7, the koff was determined as 0.0014 s⁻¹ in experiment [3], 0.00057 s⁻¹ in experiment [4] and 2.5e-05 s⁻¹ in [5].

B8: 346.8 (Fab, V domains shown)
VH: EVQLLESGGGLVQPGGSLRLSCAASGFTFSSYAMSWVRQAPGKGLEWVSSIEQMGWQTYYADSVKGRFTISRDNSKNTLYLQMNSLRAEDTAVYYCAKHIGRTNPFDYWGQGTLVTVSS
VL: DIQMTQSPSSLSASVGDRVTITCRASQSISSYLNWYQQKPGKAPKLLIYAASSLQSGVPSRFSGSGSGTDFTLTISSLQPEDFATYYCQQSVVAPLTFGQGTKVEIKR
notes: also called Lc8/Hc8
For B8, the binding result in [7] and in [9] was “binds” throughout.
